Data taken from patent US20240189392A1.

What was measured:
Experiment in all cases: cell-based or functional assay
human RXFP4 (human) = human RXFP4 (human) (UniProt Q8TDU9)
human RXFP3 (human) = human RXFP3 (human) (UniProt Q9NSD7)
human RXFP2 (human) = human RXFP2 (human) (UniProt Q8WXD0)
Sequence of human RXFP2 (human) (Q8WXD0 whole entry): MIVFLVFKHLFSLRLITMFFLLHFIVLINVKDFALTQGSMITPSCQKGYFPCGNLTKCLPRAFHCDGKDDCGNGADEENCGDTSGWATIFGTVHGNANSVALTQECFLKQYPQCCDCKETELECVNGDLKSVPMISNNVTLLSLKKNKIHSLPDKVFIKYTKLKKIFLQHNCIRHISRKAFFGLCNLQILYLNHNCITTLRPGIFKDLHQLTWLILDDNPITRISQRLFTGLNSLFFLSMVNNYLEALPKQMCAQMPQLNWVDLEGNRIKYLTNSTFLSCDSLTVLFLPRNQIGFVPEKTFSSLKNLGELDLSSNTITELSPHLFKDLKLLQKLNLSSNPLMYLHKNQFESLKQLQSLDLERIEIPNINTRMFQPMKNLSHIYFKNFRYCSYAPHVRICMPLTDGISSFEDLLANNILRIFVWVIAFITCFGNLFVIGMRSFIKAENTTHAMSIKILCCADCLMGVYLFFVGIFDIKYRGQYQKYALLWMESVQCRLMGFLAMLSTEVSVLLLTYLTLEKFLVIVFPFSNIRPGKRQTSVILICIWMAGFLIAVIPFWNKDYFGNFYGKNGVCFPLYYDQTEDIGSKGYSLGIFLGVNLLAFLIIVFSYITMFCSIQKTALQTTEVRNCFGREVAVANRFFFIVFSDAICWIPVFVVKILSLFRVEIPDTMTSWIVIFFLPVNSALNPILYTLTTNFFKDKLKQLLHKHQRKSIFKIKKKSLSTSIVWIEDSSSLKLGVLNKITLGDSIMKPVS

Sequence of human RXFP4 (human) (Q8TDU9 whole entry): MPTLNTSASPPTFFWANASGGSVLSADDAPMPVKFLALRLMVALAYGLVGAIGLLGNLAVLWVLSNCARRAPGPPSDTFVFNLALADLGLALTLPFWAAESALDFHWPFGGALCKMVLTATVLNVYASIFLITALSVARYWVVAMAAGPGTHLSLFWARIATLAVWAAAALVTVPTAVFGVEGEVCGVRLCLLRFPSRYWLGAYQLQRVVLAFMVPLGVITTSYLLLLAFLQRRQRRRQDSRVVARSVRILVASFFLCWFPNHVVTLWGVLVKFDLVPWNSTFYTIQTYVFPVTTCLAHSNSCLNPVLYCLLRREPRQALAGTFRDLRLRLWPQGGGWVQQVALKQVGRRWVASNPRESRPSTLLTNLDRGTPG
Sequence of human RXFP3 (human) (Q9NSD7 whole entry): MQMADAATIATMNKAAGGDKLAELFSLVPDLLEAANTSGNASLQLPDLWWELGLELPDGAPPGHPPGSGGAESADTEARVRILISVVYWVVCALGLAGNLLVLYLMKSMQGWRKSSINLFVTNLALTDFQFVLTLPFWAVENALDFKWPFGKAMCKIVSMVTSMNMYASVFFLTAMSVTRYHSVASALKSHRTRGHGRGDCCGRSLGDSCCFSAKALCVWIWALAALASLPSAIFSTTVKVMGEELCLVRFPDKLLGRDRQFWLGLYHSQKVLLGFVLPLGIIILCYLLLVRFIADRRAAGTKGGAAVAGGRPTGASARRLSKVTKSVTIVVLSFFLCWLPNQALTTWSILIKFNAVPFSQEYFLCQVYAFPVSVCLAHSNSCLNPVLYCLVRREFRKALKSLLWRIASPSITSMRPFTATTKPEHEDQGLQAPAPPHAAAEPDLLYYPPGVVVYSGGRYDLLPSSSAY

Substance | cAMP Assay EC50 (nM), inhibition of forskolin-induced cAMP, human RXFP4/CHO-K1 cells (human RXFP4 (human)) [nM] | maximal inhibition of forskolin-induced cAMP, human RXFP4/CHO-K1 cells (human RXFP4 (human)) [%] | cAMP Assay EC50 (nM), inhibition of forskolin-induced cAMP, human RXFP3/CHO-K1 cells (human RXFP3 (human)) [nM] | cAMP Assay EC50 (nM), human RXFP2/CHO-K1 cells (human RXFP2 (human)) [nM]
recombinant human relaxin 3 (H3-RLX) (from UniProt Q8WXF3 26-142) (ligand) | 2.8 | 40 | 0.6 | –
insulin like 3 protein (INSL3) (from UniProt P51460 21-131) (ligand) | – | – | – | 0.46
